# Reference: IntAct's records for PubMed 29892012
# B1: TBC1 domain family member 22B (Homo sapiens), Q9NU19 (parent)
# chain: MAAENSKQFWKRSAKLPGSIQPVYGAQHPPLDPRLTKNFIKERSKVNTVPLKNKKASSFHEFARNTSDAWDIGDDEEEDFSSPSFQTLNSKVALATAAQVLENHSKLRVKPERSQSTTSDVPANYKVIKSSSDAQLSRNSSDTCLRNPLHKQQSLPLRPIIPLVARISDQNASGAPPMTVREKTRLEKFRQLLSSQNTDLDELRKCSWPGVPREVRPITWRLLSGYLPANTERRKLTLQRKREEYFGFIEQYYDSRNEEHHQDTYRQIHIDIPRTNPLIPLFQQPLVQEIFERILFIWAIRHPASGYVQGINDLVTPFFVVFLSEYVEEDVENFDVTNLSQDMLRSIEADSFWCMSKLLDGIQDNYTFAQPGIQKKVKALEELVSRIDEQVHNHFRRYEVEYLQFAFRWMNNLLMRELPLRCTIRLWDTYQSEPEGFSHFHLYVCAAFLIKWRKEILDEEDFQGLLMLLQNLPTIHWGNEEIGLLLAEAYRLKYMFADAPNHYRR
# partner: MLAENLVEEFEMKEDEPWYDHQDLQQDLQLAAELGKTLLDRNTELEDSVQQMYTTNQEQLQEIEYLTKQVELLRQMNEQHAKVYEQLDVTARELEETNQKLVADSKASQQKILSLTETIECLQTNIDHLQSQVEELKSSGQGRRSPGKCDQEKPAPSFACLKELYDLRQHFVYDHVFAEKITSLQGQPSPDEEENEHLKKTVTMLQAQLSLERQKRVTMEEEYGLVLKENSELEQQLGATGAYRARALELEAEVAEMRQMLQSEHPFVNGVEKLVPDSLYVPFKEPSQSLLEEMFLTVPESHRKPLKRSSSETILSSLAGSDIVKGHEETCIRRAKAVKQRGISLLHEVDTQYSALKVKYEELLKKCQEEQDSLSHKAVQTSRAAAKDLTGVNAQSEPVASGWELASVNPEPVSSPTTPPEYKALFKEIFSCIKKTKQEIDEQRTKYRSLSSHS
# B2: Coiled-coil alpha-helical rod protein 1 (Homo sapiens), Q8TD31 (parent)
# chain: MFPPSGSTGLIPPSHFQARPLSTLPRMAPTWLSDIPLVQPPGHQDVSERRLDTQRPQVTMWERDVSSDRQEPGRRGRSWGLEGSQALSQQAEVIVRQLQELRRLEEEVRLLRETSLQQKMRLEAQAMELEALARAEKAGRAEAEGLRAALAGAEVVRKNLEEGSQRELEEVQRLHQEQLSSLTQAHEEALSSLTSKAEGLEKSLSSLETRRAGEAKELAEAQREAELLRKQLSKTQEDLEAQVTLVENLRKYVGEQVPSEVHSQTWELERQKLLETMQHLQEDRDSLHATAELLQVRVQSLTHILALQEEELTRKVQPSDSLEPEFTRKCQSLLNRWREKVFALMVQLKAQELEHSDSVKQLKGQVASLQEKVTSQSQEQAILQRSLQDKAAEVEVERMGAKGLQLELSRAQEARRRWQQQTASAEEQLRLVVNAVSSSQIWLETTMAKVEGAAAQLPSLNNRLSYAVRKVHTIRGLIARKLALAQLRQESCPLPPPVTDVSLELQQLREERNRLDAELQLSARLIQQEVGRAREQGEAERQQLSKVAQQLEQELQQTQESLASLGLQLEVARQGQQESTEEAASLRQELTQQQELYGQALQEKVAEVETRLREQLSDTERRLNEARREHAKAVVSLRQIQRRAAQEKERSQELRRLQEEARKEEGQRLARRLQELERDKNLMLATLQQEGLLSRYKQQRLLTVLPSLLDKKKSVVSSPRPPECSASAPVAAAVPTRESIKGSLSVLLDDLQDLSEAISKEEAVCQGDNLDRCSSSNPQMSS
# partner: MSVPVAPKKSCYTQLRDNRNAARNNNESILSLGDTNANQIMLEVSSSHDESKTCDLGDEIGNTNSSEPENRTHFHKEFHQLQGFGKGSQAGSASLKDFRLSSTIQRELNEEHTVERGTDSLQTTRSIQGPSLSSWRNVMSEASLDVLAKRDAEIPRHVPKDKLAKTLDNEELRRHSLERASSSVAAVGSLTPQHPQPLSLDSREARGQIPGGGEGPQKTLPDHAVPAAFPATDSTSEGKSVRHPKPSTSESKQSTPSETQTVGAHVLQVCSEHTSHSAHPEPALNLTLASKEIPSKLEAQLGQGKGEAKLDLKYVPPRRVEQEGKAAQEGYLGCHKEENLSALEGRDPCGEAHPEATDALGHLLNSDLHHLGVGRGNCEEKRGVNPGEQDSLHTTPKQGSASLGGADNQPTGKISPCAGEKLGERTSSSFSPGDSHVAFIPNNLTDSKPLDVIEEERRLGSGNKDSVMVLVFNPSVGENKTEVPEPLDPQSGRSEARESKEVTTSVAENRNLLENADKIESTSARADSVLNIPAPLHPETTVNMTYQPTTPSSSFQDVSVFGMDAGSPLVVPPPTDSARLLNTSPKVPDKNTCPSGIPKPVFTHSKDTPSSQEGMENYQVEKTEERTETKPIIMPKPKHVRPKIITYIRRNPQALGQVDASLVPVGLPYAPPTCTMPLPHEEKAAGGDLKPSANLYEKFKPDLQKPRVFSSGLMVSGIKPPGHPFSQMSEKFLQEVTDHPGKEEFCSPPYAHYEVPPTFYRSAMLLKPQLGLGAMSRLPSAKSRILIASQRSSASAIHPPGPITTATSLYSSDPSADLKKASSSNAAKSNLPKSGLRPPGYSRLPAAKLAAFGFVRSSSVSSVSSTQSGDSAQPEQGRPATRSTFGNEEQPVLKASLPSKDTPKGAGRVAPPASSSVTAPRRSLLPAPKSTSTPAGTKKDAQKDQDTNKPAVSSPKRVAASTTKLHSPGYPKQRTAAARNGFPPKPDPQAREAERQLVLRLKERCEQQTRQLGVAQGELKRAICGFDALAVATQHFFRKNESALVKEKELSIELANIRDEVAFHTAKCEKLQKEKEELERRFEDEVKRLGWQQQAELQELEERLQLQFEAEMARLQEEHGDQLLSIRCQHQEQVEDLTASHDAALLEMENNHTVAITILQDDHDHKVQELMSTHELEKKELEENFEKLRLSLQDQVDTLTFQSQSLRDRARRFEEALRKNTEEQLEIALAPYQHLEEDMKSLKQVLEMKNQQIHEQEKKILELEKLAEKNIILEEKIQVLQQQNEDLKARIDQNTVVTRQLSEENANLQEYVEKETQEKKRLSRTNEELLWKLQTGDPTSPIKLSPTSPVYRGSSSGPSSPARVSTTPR
# B3: Coiled-coil alpha-helical rod protein 1 (Homo sapiens), Q8TD31 (parent)
# chain: B2 chain
# partner: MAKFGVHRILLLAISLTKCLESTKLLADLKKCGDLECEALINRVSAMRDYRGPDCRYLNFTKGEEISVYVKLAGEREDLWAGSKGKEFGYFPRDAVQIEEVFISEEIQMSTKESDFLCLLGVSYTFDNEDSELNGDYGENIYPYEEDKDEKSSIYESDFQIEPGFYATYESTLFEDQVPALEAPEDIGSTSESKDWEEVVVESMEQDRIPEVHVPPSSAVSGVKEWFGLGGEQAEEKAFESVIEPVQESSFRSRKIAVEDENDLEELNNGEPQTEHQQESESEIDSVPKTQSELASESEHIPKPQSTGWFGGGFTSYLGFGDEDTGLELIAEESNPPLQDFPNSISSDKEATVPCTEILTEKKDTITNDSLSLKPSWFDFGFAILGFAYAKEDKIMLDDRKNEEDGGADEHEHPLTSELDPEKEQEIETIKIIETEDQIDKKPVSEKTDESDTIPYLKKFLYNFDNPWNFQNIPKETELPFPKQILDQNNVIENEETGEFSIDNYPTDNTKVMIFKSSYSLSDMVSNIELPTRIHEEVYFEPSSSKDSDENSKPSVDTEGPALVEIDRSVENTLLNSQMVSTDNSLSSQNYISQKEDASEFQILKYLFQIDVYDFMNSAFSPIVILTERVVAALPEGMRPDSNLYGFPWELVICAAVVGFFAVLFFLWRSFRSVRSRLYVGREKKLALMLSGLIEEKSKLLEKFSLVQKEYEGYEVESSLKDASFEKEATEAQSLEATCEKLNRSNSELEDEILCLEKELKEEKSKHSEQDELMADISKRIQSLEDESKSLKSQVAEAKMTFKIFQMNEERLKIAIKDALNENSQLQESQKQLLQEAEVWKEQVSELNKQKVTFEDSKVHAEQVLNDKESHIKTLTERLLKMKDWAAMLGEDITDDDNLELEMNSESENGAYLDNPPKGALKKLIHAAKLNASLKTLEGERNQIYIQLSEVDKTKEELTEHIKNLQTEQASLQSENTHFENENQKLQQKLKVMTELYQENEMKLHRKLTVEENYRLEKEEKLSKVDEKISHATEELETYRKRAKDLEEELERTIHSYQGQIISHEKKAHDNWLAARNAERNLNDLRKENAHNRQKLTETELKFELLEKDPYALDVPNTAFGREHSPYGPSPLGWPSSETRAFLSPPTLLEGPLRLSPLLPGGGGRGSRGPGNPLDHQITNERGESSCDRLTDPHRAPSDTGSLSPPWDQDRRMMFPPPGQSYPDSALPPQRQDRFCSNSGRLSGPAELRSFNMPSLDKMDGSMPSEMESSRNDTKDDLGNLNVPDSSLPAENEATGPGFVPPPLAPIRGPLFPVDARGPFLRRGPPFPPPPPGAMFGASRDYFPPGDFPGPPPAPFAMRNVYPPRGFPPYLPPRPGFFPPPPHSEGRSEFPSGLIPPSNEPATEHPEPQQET
# B4: Chorion-specific transcription factor GCMb (Homo sapiens), O75603 (parent)
# chain: MPAAAVQEAVGVCSYGMQLSWDINDPQMPQELALFDQFREWPDGYVRFIYSSDEKKAQRHLSGWAMRNTNNHNGHILKKSCLGVVVCTQACTLPDGSRLQLRPAICDKARLKQQKKACPNCHSALELIPCRGHSGYPVTNFWRLDGNAIFFQAKGVHDHPRPESKSETEARRSAIKRQMASFYQPQKKRIRESEAEENQDSSGHFSNIPPLENPEDFDIVTETSFPIPGQPCPSFPKSDVYKATCDLATFQGDKMPPFQKYSSPRIYLPRPPCSYELANPGYTNSSPYPTLYKDSTSIPNDTDWVHLNTLQCNVNSYSSYERSFDFTNKQHGWKPALGKPSLVERTNHGQFQAMATRPYYNPELPCRYLTTPPPGAPALQTVITTTTKVSYQAYQPPAMKYSDSVREVKSLSSCNYAPEDTGMSVYPEPWGPPVTVTRAASPSGPPPMKIAGDCRAIRPTVAIPHEPVSSRTDEAETWDVCLSGLGSAVSYSDRVGPFFTYNNEDF
# partner: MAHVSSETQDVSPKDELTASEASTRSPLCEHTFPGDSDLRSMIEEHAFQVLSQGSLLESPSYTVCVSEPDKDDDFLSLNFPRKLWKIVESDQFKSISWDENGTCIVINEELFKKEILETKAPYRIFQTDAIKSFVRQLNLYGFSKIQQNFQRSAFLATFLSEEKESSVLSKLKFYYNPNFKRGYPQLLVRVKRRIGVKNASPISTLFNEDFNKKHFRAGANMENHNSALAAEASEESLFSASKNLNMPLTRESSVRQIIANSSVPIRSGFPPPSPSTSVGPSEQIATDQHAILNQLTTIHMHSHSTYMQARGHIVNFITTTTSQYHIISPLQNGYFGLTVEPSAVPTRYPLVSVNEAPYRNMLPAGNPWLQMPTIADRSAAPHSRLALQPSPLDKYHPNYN
# Variants of: B1
# Conditions: with cdr2_human CDR2, Q01850
row,Variant,effect of a mutation on the interaction
1,A349T,disrupting interaction strength

# Variants of: B2
# Conditions: with mtus2_human MTUS2, Q5JR59
row,Variant,effect of a mutation on the interaction
1,W337R,disrupting interaction strength

# Variants of: B3
# Conditions: with mia2_human MIA2, Q96PC5
row,Variant,effect of a mutation on the interaction
1,W337R,disrupting interaction strength

# Variants of: B4
# Conditions: with hsfy1_human HSFY1, Q96LI6
row,Variant,effect of a mutation on the interaction
1,G349E,with no effect
